Source: patent US20190071501A1 (REYOUNG SUZHOU BIOLOGY SCIENCE AND TECHNOLOGY, published 2019)

Key:
PD1-Fc-His [1] = target: T1, PD1-Fc-His (UniProt Q15116 25-167, limits assumed); assay: competition ELISA: antibody pre-incubated with PD1-Fc-His, plate coated with 'PD1-Fc' (competitor (so in the source)), anti-His-HRP; mouse antibody; ELISA competition, PD1-Fc-His in solution
T1 construct: not shown: Fc; His tag
Protocol: (§1) Incubate the gradient diluted antibody and a certain concentration of PD1-Fc-His in advance, then add the mixture to the plate enveloped with PD1-Fc. Add anti-His-HRP to the plate after incubating and washing. Then perform coloration. Draw up the reaction curve by fitting of readings (see FIG. 2 for results) to calculate the IC50 value.

PD1-Fc-His [2] = target: T1, PD1-Fc-His; assay: Inhibition ELISA: graded antibody pre-incubated with PD1-Fc-His, added to a plate coated with 'PD1-Fc' (so in the source), anti-His-HRP, OD450
Protocol: as §1

PD1-His [3] = target: T2, PD1-His (human, UniProt Q15116 25-167, limits assumed); assay: ELISA, PD1-His coated, goat anti-mouse-HRP
T2 construct: also called hPD-1; not shown: His tag
Protocol: Envelop PD1-His on the plate, add gradient diluted antibody, incubate and wash it, and then add goat anti-mouse-HRP, perform coloration, and draw up the reaction curve by fitting of readings (see FIG. 1 for results) to calculate the EC50 value.

[4] = target: T3, PD1 on PD1-27 cells (PD1 over-expressed CHO-K1 stable transfected cells) (UniProt Q15116 25-288); assay: cell competition on PD1-27 CHO-K1 cells against 'PD1-Fc' (competitor (so in the source)), anti-Human-EU; mouse antibody; cell competition on PD1-27 CHO-K1 cells
T3 construct: whole, on cells
Excerpt: (§2) Lay PD1-27 (PD1 over-expressed CHO-K1 stable transfected cells) on the cell plate for culture inspection one day ahead of schedule. After closure on the next day, add gradient-diluted antibody and PD1-Fc, then anti-Human-EU after washing, and then fluorescence enhancement solution after washing.

[5] = target: T3, PD1 on PD1-27 cells (PD1 over-expressed …); assay: cell binding on PD1-27 CHO-K1 cells, anti-mouse-EU fluorescence
Excerpt: as §2, with “antibody,” for “antibody and PD1-Fc,”, “anti-mouse-EU” for “anti-Human-EU”, “washing,” for “washing, and”, “washing, and obtain the readings.” for “washing.”

[6] = target: T3, PD1 on PD1-27 cells (PD1 over-expressed …); assay: direct cell binding on PD1-27 CHO-K1 cells, EU fluorescence (heading 'Cell binding activity'; value printed as 'cell inhibitory activity IC50'); direct cell binding on PD1-27 cells, no competitor
Excerpt: as §2, with “antibody,” for “antibody and PD1-Fc,”, “anti-mouse-EU” for “anti-Human-EU”, “washing,” for “washing, and”, “washing, and obtain the readings.” for “washing.”

PD1-Fc-His [7] = target: T1, PD1-Fc-His; assay: competition ELISA: antibody pre-incubated with PD1-Fc-His, plate coated with 'PD1-Fc' (competitor (so in the source)), anti-His-HRP; humanized-section antibody; ELISA competition, PD1-Fc-His in solution
Protocol: as §1, with “laid” for “enveloped”, “7” for “2”

[8] = target: Recombinant human PD-1 fusion protein (human); assay: ELISA: recombinant human PD-1 fusion protein coated at 0.5 ug/mL, antibody kept 4 days in monkey serum at 37 C, goat anti-human FAB-HRP, OD450
recombinant human CD28 = target: T4, recombinant human CD28 (human, UniProt P10747 19-152, limits assumed); assay: ELISA: protein coated at 0.5 ug/mL, antibody at 0.5 ug/mL, goat anti-human FAB-HRP, OD450
T4 construct: Plate-coated at 0.5 ug/mL in Embodiment 8
Protocol: (§3) The binding of recombinant human CD28, recombinant human CTLA-4, recombinant mouse PD-1, recombinant M.fascicularis PD-1 and recombinant human PD-1 protein in recombinant CD28 family to antibodies is tested. Different proteins are stored at 0.5 μg/mL in enveloping buffer at 4° C. overnight. Remove the solution in wells the next day and wash with PBST for twice. Then add 1% BSA, seal at 37° C. for 1 hour, then wash with PBST for twice. Add 0.5 μg/mL antibody samples, incubate for 1 hour, and wash with PBST for three times. Dilute with goat anti-human FAB-HRP at ratio of 1:10000, incubate for 1 hour at 37 C, and wash with PBST for three times. Add TMB for 15 min coloration, stop the reaction with 0.5M H2SO4 and read out the absorbance at 450 nm.

recombinant human CTLA-4 = target: T5, recombinant human CTLA-4 (human, UniProt P16410 36-161, limits assumed); assay: as above
T5 construct: Plate-coated at 0.5 ug/mL in Embodiment 8
T5 sequence (looked up): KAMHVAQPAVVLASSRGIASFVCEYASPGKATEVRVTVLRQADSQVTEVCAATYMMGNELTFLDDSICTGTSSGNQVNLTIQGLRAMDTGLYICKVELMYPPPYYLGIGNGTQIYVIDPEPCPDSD
Protocol: as §3

mouse pd1 = target: T6, mouse pd1 (mouse, UniProt Q02242); assay: as above
T6 construct: recombinant protein coated on the ELISA plate; also called recombinant mouse PD-1
T6 sequence (receptor, looked up): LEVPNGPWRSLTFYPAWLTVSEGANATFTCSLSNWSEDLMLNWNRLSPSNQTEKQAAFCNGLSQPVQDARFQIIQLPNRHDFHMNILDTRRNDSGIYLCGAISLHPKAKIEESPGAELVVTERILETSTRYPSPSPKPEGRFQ
Protocol: as §3

PD1-Fc-His [9] = target: T1, PD1-Fc-His; assay: Inhibition ELISA: graded antibody pre-incubated with PD1-Fc-His, added to a plate laid with 'PD1-Fc' (so in the source), anti-His-HRP, OD450
Protocol: as §1, with “laid” for “enveloped”, “7” for “2”

[10] = target: Recombinant human PD-1 fusion protein (human); assay: ELISA: recombinant human PD-1 fusion protein coated at 0.5 ug/mL, antibody kept 1 day in monkey serum at 37 C, goat anti-human FAB-HRP, OD450
[11] = target: Recombinant human PD-1 fusion protein (human); assay: ELISA: recombinant human PD-1 fusion protein coated at 0.5 ug/mL, antibody kept 0 days in monkey serum at 37 C, goat anti-human FAB-HRP, OD450
[12] = target: T7, PD-1 antigen of the Biacore experiment (not given) (UniProt Q15116 25-167, limits assumed); assay: SPR (Biacore), antibody captured by goat anti-human IgG on CM5 chip
T7 construct: Embodiment 5 describes capture by goat anti-human IgG on the chip but never names the analyte
Excerpt: Biacore is used to analyze the affinity and binding kinetics of the antibody expressed in cell line 4. Using standard amine coupling chemistry and the kit provided by Biacore, the goat anti-human IgG is covalently linked to CMS chip by primary amine. Make the antibody flow in the HBS EP buffer at a flow rate of […] and measure the binding. The binding time is 300 seconds, and the dissociation time is 7200 seconds.

[13] = target: Recombinant human PD-1 fusion protein (human); assay: ELISA: recombinant human PD-1 fusion protein coated at 0.5 ug/mL, antibody kept 7 days in monkey serum at 37 C, goat anti-human FAB-HRP, OD450
PD1-His [14] = target: T2, PD1-His; assay: ELISA, PD1-His coated; ELISA, PD1-His on the plate
Protocol: Lay PD1-His on the plate, add gradient diluted antibody, incubate and wash it, and then add goat anti-mouse-HRP, perform coloration, and draw up the reaction curve by fitting of readings (see FIG. 6 for results) to calculate the EC50 value.

T3 sequence (Q15116 25-288 limits assumed): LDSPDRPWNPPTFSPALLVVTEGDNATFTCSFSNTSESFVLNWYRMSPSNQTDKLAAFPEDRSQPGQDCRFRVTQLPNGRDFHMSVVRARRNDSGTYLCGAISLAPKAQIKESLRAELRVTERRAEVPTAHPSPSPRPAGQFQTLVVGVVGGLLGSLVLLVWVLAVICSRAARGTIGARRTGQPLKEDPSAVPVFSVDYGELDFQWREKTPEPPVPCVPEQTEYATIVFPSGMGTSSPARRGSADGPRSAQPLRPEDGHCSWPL
Sequence of Recombinant human PD-1 fusion protein (human) (Q15116 25-170): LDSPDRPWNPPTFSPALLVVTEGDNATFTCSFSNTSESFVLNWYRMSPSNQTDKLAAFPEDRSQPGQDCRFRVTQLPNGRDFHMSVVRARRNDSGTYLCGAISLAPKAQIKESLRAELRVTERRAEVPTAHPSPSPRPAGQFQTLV
T1 sequence (Q15116 25-167 limits assumed): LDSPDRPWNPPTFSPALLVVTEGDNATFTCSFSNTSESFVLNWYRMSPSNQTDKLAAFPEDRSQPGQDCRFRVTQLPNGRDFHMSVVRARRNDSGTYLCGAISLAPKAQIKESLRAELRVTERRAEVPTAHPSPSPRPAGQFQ
T7 sequence (Q15116 25-167 limits assumed): as above
T2 sequence (Q15116 25-167 limits assumed): as above
T4 sequence (P10747 19-152 limits assumed): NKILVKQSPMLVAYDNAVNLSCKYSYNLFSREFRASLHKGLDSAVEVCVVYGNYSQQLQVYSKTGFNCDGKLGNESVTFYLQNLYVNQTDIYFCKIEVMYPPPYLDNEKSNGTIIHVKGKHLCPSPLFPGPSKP

B1: mouse anti-PD-1 (antibody, V domains shown)
VH: DVKLVESGGGLVKPGGSLKLSCAASGFTFSSYTMSWVRQTPEKRLEWVATISNGGSFTYYPDSMKGRFTISRDNAKNTLYLQMSSLKSEDTAMYYCTRDSDYYGIFDYWGQGTTLTVSS
VL: DIVITQDELSNPVTSGESVSISCRSSKSLLYKDGKTYLNWFLQRPGQSPQLLIYLMSTRASGVSDRFSGSGSGTDFTLEISRVKAEDVGVYYCQQLVEDPFTFGSGTKLEIKR
notes: also called mouse anti-PD-1 monoclonal antibody; mouse PD-1 antibody
IC50 (PD1-Fc-His [1]): 3.83 nM | IC50 (read off the curve) (PD1-Fc-His [2]): ~4 ng/mL | EC50 (PD1-His [3]): 2.4 ng/mL | IC50 [4]: 0.284 µg/mL | EC50 [5]: 0.0878 µg/mL

B2: humanized antibody anti-PD-1 (antibody, V domains shown)
VH: EVQLVESGGGLVKPGGSLRLSCAASGFTFSSYTMSWVRQAPGKGLEWVATISNGGSFTYYPDSMKGRFTISRDNSKNTLYLQMSSLRAEDTAVYYCARDSDYYGIFDYWGQGTTVTVSS
VL: DIVMTQSPLSLPVTPGEPASISCRSSKSLLYKDGKTYLNWYLQKPGQSPQLLIYLMSTRASGVPDRFSGSGSGTDFTLKISRVEAEDVGVYYCQQLVEDPFTFGQGTKLEIKR
notes: Human constant regions; also called humanized PD-1 antibody; hup01 (plasmids P3.1GS-hup01-HC / P3.1GS-hup01-LC)
EC50 [6]: 0.103 µg/mL | IC50 (PD1-Fc-His [7]): 406 nM | EC50 (read off the curve) [8]: 40 ng/mL | binding result (recombinant human CD28): no binding (tested: 0.5 ug/mL) | binding result (recombinant human CTLA-4): no binding (tested: 0.5 ug/mL) | binding result (mouse pd1): no binding (tested: 0.5 ug/mL) | IC50 (read off the curve) (PD1-Fc-His [9]): ~400 ng/mL | EC50 (read off the curve) [10]: 40 ng/mL | EC50 (read off the curve) [11]: 40 ng/mL | Kd [12]: 0.422 nM | koff [12]: 1.93e-05 s⁻¹ | kon [12]: 45700 M⁻¹ s⁻¹ | EC50 (read off the curve) [13]: 40 ng/mL | EC50 (PD1-His [14]): 6.09 ng/mL
